Assay results taken from patent US20240254227A1 (Alector, published 2024).
Residue numbers refer to the chain shown, from its start.

B1: anti-CD300LB antibody CD-05 (antibody, V domains shown)
VH: QVQLVQSGAEVKKPGASVKVSCKASGYTFSRYYINWVRQAPGQGLEWMGWINPNSGGTNYAQKFQGRVTMTRDTSTSTVYMELSSLRSEDTAVYYCTTDQLRFGKTGPYYGMDVWGQGTTVTVSS
VL: DIQMTQSPSSLSASVGDRVTITCRASQNIGTYLNWYQQKPGKAPKLLIYAASSLQSGVPSRFSGSGSGTDFTLTISSLQPEDFATYYCQQSYSDTLTFGGGTKVEIK
B2: anti-CD300LB antibody CD-03 (antibody, V domains shown)
VH: EVQLQQSGPELVKPGASVKISCKASGYTFTDYYINWVRQSHGKSLECIGDINPNNGGTNYNQKFKGKATLTVDRSSNTAYMEFRSLTFDDSALYYCAAEGAYWGQGTLVTVSA
VL: not shown
B3: anti-CD300LB antibody CD-02 (antibody, V domains shown)
VH: QVQLQQPGAELVRPGSSVKLSCQASGYTFTNYWMHWVRQRPIQGLEWIGNIDPSDSETHYNQKFKDRATLTVDKSSSTAYMQLSSLTSEDSAVYYCARSGVYDDEGGDYWGQGTTLTVSS
VL: ENVLTQSPAIMSASPGEKVTMTCSASSSVSYIHWYQQKSSTSPKLWIYDTSKLASGVPGRFSGSGSGNSYSLTISSMETEDVATYYCFQGSGYPLTFGAGTKLELK
B4: anti-CD300LB antibody CD-01 (antibody, V domains shown)
VH: RVQLQQSGAELVRPGASVTLSCKASGFTFTDFEMHWVKKTPVHGLEWIGAIDPESGNTAYNQKFRGKATLTADKSSSTAYMELRYLTSEDSAVYYCTPLISGADYWGQGTTLTVSS
VL: DVVMTQSPLSLPVSLGDQASISCRSSQSLVHSDGNTYLYWYLQKPGQSPKLLIYKVSNRFSGVPDRFSGSGSGTDFTFKISRVGAEDLGVYFCSQSTHVPWTFGGGTKLEII
B5: anti-CD300LB antibody CD-12 (antibody, V domains shown)
VH: QIQLVQSGPELKKPGETVKISCKASGYTFTDYSMHWVRQAPGKGLKWMAWINTETGEATHADDFKGRFDFSLDTSASTAYLQIKNLKNEDTGIYFCVCYGSSYGMDYWGQGTSVTVSS
VL: DIVLTQSPASLPVSLGQRATISCRASKSVRTSGASYMHWYQQKPGQPPKLLIYLASNLKSGVPTRFSGSGSGTDFTLNIHPVEEEDAATYYCQHNREVPPTFGGGTKLEIK
B6: anti-CD300LB antibody CD-15 (antibody, V domains shown)
VH: QIQLVQSGPELKKPGETVKISCQVSGYTFTDYSMHWLKQAPGKGLKWMAWINTETGESTYTDEFKGRFVFSLETSVRTAYLKINNLKNEDTATYFCGTYGSSYGMAYWGQGTSVTVSS
VL: B5 VL with R30S, A34S, M37L, N57K, K59E, T64A, S67R
B7: anti-CD300LB antibody CD-17 (antibody, V domains shown)
VH: QIQLVQSGPELKKPGETVKISCKASGYTLTDYSMHWVKQAPGKGLKWMGWINTETGEPRYGDDFKGRFAFSLETSASSAYLQINNLKNDDTATYFCATYGRSYGMDFWGQGTSVTVSS
VL: B5 VL with P12A, R30S, T31P, A34H, T64A, E85G, V98L, T106S
B8: anti-CD300LB antibody CD-18 (antibody, V domains shown)
VH: DVQLQESGPDLVKPSQSLSLTCTVTGYSITSGYSWHWIRQFPDNKLEWMGYILSRGDTNFNPSLKSRISITRSTSNNQFFLHFNSVTTEDTATYYCARDFFDYWGQGTTLTVSS
VL: DVLMTQTPLSLPVSLGDQASISCRSSQSIVHSNGNTYLEWYLQKPGQSPKLLIYKVSDRFSGVPDRFSGSGSGTDFTLKISRVEAEDLGVYFCFQGSHVPYTFGGGTKLEIK
B9: anti-CD300LB antibody CD-11 (antibody, V domains shown)
VH: QIQLVQSGPEVKKPGETVKISCKASGYTLTDYSMHWVMQTPGTGLKWMAWMNTETGEPTYADDFKGRFAFSLETSAGTAYLQIDNLKNEDTATYFCATYGKSYGMKYWGQGTSVTVSS
VL: DIVLTQSPPSLAVSLGQRATISCRATKSVSPYLHWYQQTPGQPPKLLIYLASNLDSGVPARFSGSGSGTDFTLNIHPVEEEDAATYYCQHNKELPPTFGGGTRLEIK

Molecular target: T1, human CD300A-Fc (human)
T1 construct: hIgG1-Fc fusion; the entry is the whole fusion chain
T1 chain: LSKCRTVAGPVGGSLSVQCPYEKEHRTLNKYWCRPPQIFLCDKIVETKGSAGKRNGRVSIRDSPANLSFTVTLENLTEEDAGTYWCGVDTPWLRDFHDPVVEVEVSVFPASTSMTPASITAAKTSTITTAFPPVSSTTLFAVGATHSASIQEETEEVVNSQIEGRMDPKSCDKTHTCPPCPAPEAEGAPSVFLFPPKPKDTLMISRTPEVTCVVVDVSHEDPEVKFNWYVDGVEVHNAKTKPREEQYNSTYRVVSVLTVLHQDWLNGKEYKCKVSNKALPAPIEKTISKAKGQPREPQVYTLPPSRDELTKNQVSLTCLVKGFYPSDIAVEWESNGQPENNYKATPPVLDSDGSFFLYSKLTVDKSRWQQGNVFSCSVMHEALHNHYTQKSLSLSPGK
Experiment: SPR (Carterra LSA), antibody immobilised
From the text: (§1) In addition to the screening of antibodies for cross-reactivity by FACS analysis, surface plasmon resonance (SPR) analysis was used to determine the binding of antibodies to recombinant huCD300 and muCD300 family members (orthologs) conjugated to an Fc (human CD300A-Fc SEQ ID NO:144; human CD300LB-Fc SEQ ID NO:145; human CD300C-Fc SEQ ID NO: 146; human CD300D-Fc SEQ ID NO: 147; human CD300E-Fc SEQ ID NO: 148; human CD300F-Fc SEQ ID NO: 149; murine CD300A-Fc SEQ ID NO: 150; murine CD300LB-Fc SEQ ID NO:151; murine CD300C-Fc SEQ ID NO: 152; murine CD300D-Fc SEQ ID NO: 153, and murine CD300E-Fc SEQ ID NO: 154).
(§2) Binding of mouse anti-CD300LB IgG1 antibodies of the present disclosure to human and murine CD300 orthologs were evaluated by surface plasmon resonance (SPR) using a Carterra LSA instrument (Carterra, Salt Lake City, UT). […] A HC200M sensor chip (Carterra) was activated using the single channel flow cell with a 7-minute injection of a 1:1:1 mixture of 100 mM MES pH 5.5, 100 mM sulfo-NHS, 400 mM EDC (all reconstituted in MES pH 5.5; 100 μL of each mixed in vial immediately before running assay). After switching to the multi-channel array flow cell, the antibodies were injected over the activated chip in a 96-spot array for 10 minutes. The remaining unconjugated active groups on the chip were then blocked by injecting 1M Ethanolamine pH 8.5 (Carterra) for 7 minutes using the single channel flow cell. After priming with running buffer (HBS-TE, Carterra) with 0.5 mg/ml BSA (Sigma), the immobilized anti-CD300LB antibodies were tested for their ability to bind human and mouse recombinant CD300LB extracellular domains. Human CD300 family members and mouse CD300A were hIgG1-Fc fusions, while mouse CD300LB, mouse CD300C, mouse CD300D, and mouse CD300E were mouse IgG2a-Fc fusions (R&D Systems). Binding was assessed by injecting each analyte over the entire antibody array using the single channel flow cell. CD300 analytes were diluted to 300 nM or 600 nM in running buffer and injected in series without regeneration. Two or three buffer blanks were run between each mouse or human ortholog, respectively. Data were processed and analyzed using NextGenKIT high-throughput kinetics analysis software (Carterra).

Binding result, no binding (tested: 300 nM or 600 nM):
B1, B2, B3, B4

Molecular target: T2, human CD300D-Fc (human)
T2 construct: hIgG1-Fc fusion; the entry is the whole fusion chain
T2 chain: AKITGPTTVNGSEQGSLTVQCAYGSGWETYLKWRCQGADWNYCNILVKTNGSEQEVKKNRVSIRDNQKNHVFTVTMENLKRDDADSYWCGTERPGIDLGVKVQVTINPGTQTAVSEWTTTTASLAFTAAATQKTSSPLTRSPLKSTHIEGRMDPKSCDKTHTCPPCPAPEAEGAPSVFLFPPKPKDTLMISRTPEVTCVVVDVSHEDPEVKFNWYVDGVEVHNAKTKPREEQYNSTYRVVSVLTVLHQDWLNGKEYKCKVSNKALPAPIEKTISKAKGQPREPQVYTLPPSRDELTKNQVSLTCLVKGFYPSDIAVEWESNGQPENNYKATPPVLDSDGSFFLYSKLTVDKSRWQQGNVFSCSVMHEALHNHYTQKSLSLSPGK
Experiment: SPR (Carterra LSA), antibody immobilised
From the text: as §1, §2

Binding result, no binding (tested: 300 nM or 600 nM):
B1, B2, B3, B4

Molecular target: T3, human CD300E-Fc (human)
T3 construct: hIgG1-Fc fusion; the entry is the whole fusion chain
T3 chain: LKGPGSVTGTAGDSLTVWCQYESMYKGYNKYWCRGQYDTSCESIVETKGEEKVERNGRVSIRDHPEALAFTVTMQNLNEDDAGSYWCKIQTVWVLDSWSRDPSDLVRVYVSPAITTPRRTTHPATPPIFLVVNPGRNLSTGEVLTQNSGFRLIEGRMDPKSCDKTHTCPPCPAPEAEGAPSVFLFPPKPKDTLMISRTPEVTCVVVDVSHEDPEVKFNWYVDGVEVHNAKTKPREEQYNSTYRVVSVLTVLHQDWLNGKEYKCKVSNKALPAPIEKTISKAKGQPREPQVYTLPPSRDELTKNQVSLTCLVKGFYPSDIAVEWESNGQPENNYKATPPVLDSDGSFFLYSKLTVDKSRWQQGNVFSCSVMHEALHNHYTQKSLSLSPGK
Experiment: SPR (Carterra LSA), antibody immobilised
From the text: as §1, §2

Binding result, no binding (tested: 300 nM or 600 nM):
B1, B2, B3, B4

Molecular target: T4, murine CD300D-Fc (mouse)
T4 construct: mouse IgG2a-Fc fusion (R&D Systems); the entry is the whole fusion chain; also called mCD300D; Mouse CD300D-Fc
T4 chain: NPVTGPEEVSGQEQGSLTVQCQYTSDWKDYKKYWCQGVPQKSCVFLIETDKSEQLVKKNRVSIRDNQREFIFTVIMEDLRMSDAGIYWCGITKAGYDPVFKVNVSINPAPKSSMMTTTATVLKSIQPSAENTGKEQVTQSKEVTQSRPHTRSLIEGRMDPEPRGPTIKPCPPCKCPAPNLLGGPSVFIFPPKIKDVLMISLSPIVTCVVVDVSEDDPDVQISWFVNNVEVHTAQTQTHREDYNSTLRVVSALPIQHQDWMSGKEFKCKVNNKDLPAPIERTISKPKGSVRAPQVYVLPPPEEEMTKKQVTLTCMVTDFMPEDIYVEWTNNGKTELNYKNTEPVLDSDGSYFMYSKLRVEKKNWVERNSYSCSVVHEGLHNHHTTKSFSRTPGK
Experiment: SPR (Carterra LSA), antibody immobilised
From the text: as §1, §2

Binding result, no binding (tested: 300 nM or 600 nM):
B5, B6, B7, B8, B9
